Assay results from patent publication US20170175137A1.

Molecular target: PD-L1 on FEMX melanoma cells (UniProt Q9NZQ7)
Test: cell-based or functional assay

Sequence of UniProt Q9NZQ7 (Q9NZQ7 19-290 limits assumed): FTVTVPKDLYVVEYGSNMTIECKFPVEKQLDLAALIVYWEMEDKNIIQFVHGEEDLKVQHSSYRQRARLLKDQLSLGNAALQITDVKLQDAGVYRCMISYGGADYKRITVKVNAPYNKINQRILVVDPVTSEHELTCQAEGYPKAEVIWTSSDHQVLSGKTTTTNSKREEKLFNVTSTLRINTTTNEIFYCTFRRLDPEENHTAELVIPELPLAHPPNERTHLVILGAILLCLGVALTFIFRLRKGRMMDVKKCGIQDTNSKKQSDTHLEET

fraction of CD3+CD8+ TIL making IFN-gamma in a 12-hour intracellular cytokine release (ICS) assay, 1520 TIL co-cultured with FEMX tumor cells, antibody at 10 µg/mL: 37.3%
B1: blocking anti-PD-L1 antibody (Biolegend clone 29E.2A3) (antibody, from another filing, V domains shown)
VH: EVQLQQSGPELVKPGASVKMSCKASGYTFTSYVMHWVKQKPGQGLEWIGYVNPFNDGTKYNEMFKGKATLTSDKSSSTAYMELSSLTSEDSAVYYCARQAWGYPWGQGTLVTVSA
VL: DIVLTQSPASLAVSLGQRATISCRATESVEYYGTSLVQWYQQKPGQPPKLLIYAASSVDSGVPARFSGSGSGTDFSLTIHPVEEDDIAMYFCQQSRRVPYTFGGGTKLEIK
